Experimental data: patent publication CN115521378A (NANJING JISHENG AOMA BIOLOGICAL PHARMACEUTICAL CO LTD, dated 2022)

Target: T1, PD-L1蛋白 (human, UniProt Q9NZQ7 19-238, limits assumed)
T1 construct: also called 人PD-L1蛋白; CD274
Experiment: competition ELISA: PD-L1 coated, biotinylated PD-1 at 1 ug/mL as competitor, HRP-streptavidin read-out

T1 sequence (Q9NZQ7 19-238 limits assumed): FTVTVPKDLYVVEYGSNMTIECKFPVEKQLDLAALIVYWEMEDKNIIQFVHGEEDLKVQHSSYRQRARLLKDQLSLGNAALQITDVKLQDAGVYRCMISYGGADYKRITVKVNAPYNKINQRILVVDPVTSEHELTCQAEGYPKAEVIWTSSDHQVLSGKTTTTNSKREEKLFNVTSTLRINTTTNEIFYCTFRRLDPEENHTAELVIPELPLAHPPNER

B1: 13H6D3 (antibody, V domains shown)
VH: QVQLQQPGADLVKPGASVKLSCKASGYTFTSNWMHWMKQRPGQGLDWIGMIHPNSAIKYNEKFKSRASLTADKSSSTAYMQLSSLTSEDSAVYYCARSYYGSSPYFFDYWGQGTTLTVSS
VL: DIQMTQTTSSLSASLGDRVTISCRASQDISKYLNWYQQKPDGTVKFLIYYTSRLHSGVPARFSGSGSGTDYFLTISNLEQEDVATYFCQQGDTLPWTFGGGTKLEIK
notes: Only variable domains are tied to the name; also called 克隆 13H6D3
B1 was tested, and the IC50 was 1.23 nM.
